Drawing on patent US20130004527A1, this text covers highest concentration without competition for 7 molecules.

This assay addresses IgE in a panel of sera from 22 patients allergic to ragweed (human). Description: competition ELISA; tested as AllerR mix with 22 sera. (In general: In an ELISA, binding on a coated surface is turned into a signal by an enzyme label.)

B1: AllerR2 (peptide)
peptide: DVANPKEGTLRFGAAQNRPLWIIFERDMVIRLDKEMVVNSDKTIDGRGAKVE
For B1, the highest concentration without competition was above 10 µM.

B2: AllerR4.3 (peptide)
peptide: MHDVKVNPGGLIKSNDGPAAPRAGSDGDAISISGSSQIWIDHCSLSKSVDGLVDAKLGTTR
Molecule B2 displayed a highest concentration without competition above 10 µM.

B3: AllerR6 (peptide)
peptide: VLGRHGEAAAESMKWNWRTNKDVLENGAIFVASGVDPVLTPEQSAGMIPAEPGESALSLTSSAGVLSCQPGA
In turn, B3 registered a highest concentration without competition above 10 µM.

B4: AllerR4.2 (peptide)
peptide: VDAKLGTTRLTVSNSLFTQHQFVLLFGAGDENIEDRGMLATVAFNTFTDN
B4 came in with a highest concentration without competition above 10 µM.

B5: AllerR3 (peptide)
peptide: TIDGRGAKVEIINAGFTLNGVKNVIIHNINMHDVKVNPGGLIK
B5 yielded a highest concentration without competition above 10 µM.

B6: AllerR5 (peptide)
peptide: TVAFNTFTDNVDQRMPRCRHGFFQVVNNNYDKWGSYAIGGSASPTILSQGNRFCAPDERSKKNVLGRHGE
For the molecule B6, the highest concentration without competition is above 10 µM.

B7: AllerR1 (peptide)
peptide: TSGAYNIIDGCWRGKADWAENRKALADCAQGFGKGTVGGKDGDIYTVTSELDDDVANPK
Regarding B7, the highest concentration without competition was above 10 µM.
